Data: patent US10562935B2, “Stapled peptides and uses thereof” (London Health Sciences Centre Research Inc., priority 2015, dated 2020)
Bridges are numbered along the chain shown (N, C = ends).

Tests used:
NF-κB = assay: Inflammation assay: NF-κB inducible SEAP reporter in RAW-Blue macrophages stimulated with PAM3CSK4; assay type: cell-based, murine
Procedure: Compounds 132, 133, 135, 150, 152, 157-161, 265-269, 275, 277, and 278 were evaluated for their ability to inhibit inflammation. To determine the effect of the peptides on inflammation, commercially available murine RAW 264.7 macrophages carrying a secreted embryonic alkaline phosphatase (SEAP) reporter that is inducible by NF-κB (RAW-Blue; InvivoGen, San Diego, Calif., USA) were used. Cells were grown to 80% confluence in DMEM containing 4.5 g/L glucose, 10% heat-inactivated fetal bovine serum, 2 mM L-glutamine, 50 μg/mL penicillin/streptomycin, 100 μg/mL Normocin (InvivoGen) at 37° C. in 5% CO2. For peptide screening experiments, cells were scraped in growth medium, counted, and plated to flat-bottom 96-well plates at a density of 5×10^4 cells/well either in the presence or absence (control) of 200 ng/mL TLR1/TLR2 agonist PAM3CSK4 (InvivoGen). Peptides were added in 6 replicate wells at a dose of 10 ng/mL in the presence of PAM3CSK4. After 18 hours of stimulation, SEAP concentrations (indicating NF-κB activity) were measured in the supernatants collected from the RAW-Blue cells using QUANTI-BLUE reagent (InvivoGen). After 20 minutes of incubation at 37° C., SEAP levels were determined using spectrophotometry at a wavelength of 630 nm.
Values are the mean and SDM of n=3 replicates. *p<0.05 and ***p<0.001 compared to +PAM3. In FIGS. 44 and 45, where bars are labeled with two compound numbers (“133/150” and “135/152”) this means that the data were pooled for the indicated compounds, i.e., for the non-acetylated and acetylated versions of the indicated peptides.

[1] = tested on: IMR90 human fetal lung fibroblasts; assay: Fibrosis assay: active TGF-β levels in TGF-β treated fibroblasts (ELISA); assay type: cell-based; settings: % inhibition relative to positive control
Procedure: Compounds 132, 133, 135, 150, 152, 157-161, 265-269, 275, 277, and 278 were evaluated for their ability to inhibit fibrosis. IMR90 human fetal lung fibroblasts were obtained from ATCC and maintained in DMEM supplemented with 10% fetal bovine serum. In order to examine the effect of peptides on myofibroblast differentiation, 80% confluent cultures were serum starved overnight prior to addition of TGF-β (2 ng/mL, R&D Systems). Cells were treated with TGF-β for 24 hours prior to addition of peptides (10 ng/mL). 48 hours after addition of peptides, culture supernatants were collected and levels of active TGF-β measured using commercially available TGF-β ELISA (Quantikine, R&D Systems).
Values are the Mean and SDM n=3 replicates. *p<0.05, **p<0.01, ***p<0.001 when compared to the +TGFβ1 control. In FIG. 47, where bars are labeled with two compound numbers (“133/150” and “135/152”) this means that the data were pooled for the indicated compounds, i.e., for the non-acetylated and acetylated versions of the indicated peptides.

[2] = Circular dichroism (CD) spectroscopy of linear and stapled peptides in water or 40% TFE/water (Example 3); assay type: physicochemical; settings: for [0]208 mean residue ellipticity: λ = 208 nm; for [0]222 mean residue ellipticity: λ = 222 nm
Procedure: CD spectra were obtained on a Jasco J-810 spectropolarimeter and recorded in the range of 180-260 nm. Peptide solutions were prepared with a 0.1M phosphate buffer solution to a concentration of 0.5 mM. The measurements were performed in quartz cuvettes with a path length of 1 mm and a scanning speed of 10-50 nm/min. Five individual data points were averaged by the instrument in order to obtain the reported CD spectrum. The measurements were carried out at 20° C. A blank solution of 0.1M phosphate buffer solution was run before every measurement in order to baseline correct for any UV-interference observed from the buffer.
CD data for the 14- and 15-mer peptides containing HABD2 (VSKLRSQLVKRKQN, SEQ ID NO: 2) and HABD1 (NLKQKIKHVVKLKDE, SEQ ID NO: 4) and cyclized derivatives thereof in water or 40% TFE/water are provided below in Tables 8 (water) and 9 (40% TFE/water). Tables 8 and 9 provide the mean residue ellipicity ([θ] deg cm^2 dmol^−1) at λ=222 and 208 nm for each peptide and ratios of ellipticities at 222/208. Each of the peptides was acetylated at its amino terminus and amidated at its carboxy terminus.
CD data for linear peptides having the sequences […] (SEQ ID NO: 5) and […] (SEQ ID NO: 6) and cyclized derivatives thereof in water or 40% TFE/water are provided below in Tables 12 (water) and 13 (40% TFE/water). Tables 12 and 13 provide the mean residue ellipicity ([0] deg cm^2 dmol^−1) at λ=222 and 208 nm for each peptide and ratios of ellipticities at 222/208. Each of the peptides was acetylated at its amino terminus and amidated at its carboxy terminus.
Circular Dichroism (CD) spectroscopy is a tool that is used to study the secondary structure characteristics of a compound. Peptides and proteins can fold into organized structures, such as alpha helices and beta sheets, which are the result of complex hydrogen bonding and other interactions between amino acid side chains, as well as adopt a random coil formation, which lacks much of the organization of the other two structures. The CD spectrum of an alpha helix is characterized by two local minima at 208 nm and 222 nm. The ratio of the values of the molar ellipticities at these wavelengths ([θ]222/[θ]208) is a strong indication of the relative helicity of a compound; a compound is more helical when the ratio of these two values approaches 1.0. Synthetic constraints introduced to the peptide backbone can force a peptide chain to increase its helical character. These constraints can be introduced by staples, of varying types, which allow cyclization of the peptide backbone to take place.

[3] = tested on: RHAMM-overexpressing (LR21) cells; assay: Cell migration assay (Boyden chamber, Chemicon ECM510); assay type: cell-based; settings: for Migration (% inhib.): % inhibition relative to positive control; for inhibition of cell migration (in words): 10 ng/mL peptide, 20 hours, compared to 30% serum control
Procedure: Compounds 132, 133, 150-152, 156-161, 265-269, 275, 277, and 278 were evaluated for their ability to inhibit cell migration. Cell migration assays were performed using Chemicon Assay Kits (ECM510 (Migration); Billerica, Mass., USA) according to the manufacturer's protocol. Briefly, sub-confluent cultures of RHAMM-overexpressing (LR21) cells were serum starved overnight. 7.5×10^4 cells were then plated in the upper chamber of a Boyden chamber. either in the presence or absence of 10 ng/mL of peptide. 30% fetal bovine serum in DMEM was used as the chemo-attractant in the lower chamber. The number of cells that had crossed the membrane after 20 hours was assessed using the CYQUANT GR Dye and lysis buffer solution provided in the kit. Fluorescence was measured with a fluorescent plate reader using a 480/520 nm filter set.
Values are the mean and SDM of n=3 replicates. *p<0.05, **p<0.01. All statistics compare to 30% serum control. In FIGS. 41-43, where bars are labeled with two compound numbers (“133/150” and “135/152”) this means that the data were pooled for the indicated compounds, i.e., for the non-acetylated and acetylated versions of the indicated peptides.

[4] = [θ]222/[θ]208 ratio in water, summary tables 15, 17, 19
[5] = as repeated in tables 16, 18, 20

Substance	Inflammation (% Inhib.) (NF-κB; % inhibition relative to positive control)	Fibrosis (% inhib.) [1]	[θ]222/[θ]208 ratio of ellipticities [2, 4]	[θ]222/[θ]208 ratio of ellipticities [2, 5]	[0]222/[0]208 ratio of ellipticities ([2]; in 40% TFE/water)	[0]222/[0]208 ratio of ellipticities ([2]; in water)	alpha-helical character by CD (in words) ([2]; in water)	[0]208 mean residue ellipticity ([2]; in 40% TFE/water)	[0]208 mean residue ellipticity ([2]; in water)	[0]222 mean residue ellipticity ([2]; in 40% TFE/water)	[0]222 mean residue ellipticity ([2]; in water)	Migration (% inhib.) [3]	inhibition of cell migration (in words) [3]	inhibition of inflammation (SEAP / NF-κB activity, in words) (NF-κB; 10 ng/mL peptide with 200 ng/mL PAM3CSK4, 18 hours, compared to +PAM3)
Ac-(cyclo-4,8)-NLK[EKIKK]VVKLKDE-NH2 (Ac-NLKEKIKKVVKLKDE-NH2; lactam 4-8; SMILES CC[C@H](C)[C@@H]1NC(=O)[C@H](CCCCN)NC(=O)[C@@H](NC(=O)[C@H](CCCCN)NC(=O)[C@H](CC(C)C)NC(=O)[C@H](CC(N)=O)NC(C)=O)CCC(=O)NCCCC[C@@H](C(=O)N[C@H](C(=O)N[C@H](C(=O)N[C@@H](CCCCN)C(=O)N[C@@H](CC(C)C)C(=O)N[C@@H](CCCCN)C(=O)N[C@@H](CC(=O)O)C(=O)N[C@@H](CCC(=O)O)C(N)=O)C(C)C)C(C)C)NC(=O)[C@H](CCCCN)NC1=O) [Compound 157]	0 % Inhib.	38 % inhib.	0.38	0.38	0.80	0.38	decreased helicity	-1.56E+04 deg cm^2 dmol^−1	-6.40E+03 deg cm^2 dmol^−1	-1.25E+04 deg cm^2 dmol^−1	-2.46E+03 deg cm^2 dmol^−1	0 % inhib.		
Ac-(cyclo-5,9)-VSKL[ESQLK]KRKQN-NH2 (Ac-VSKLESQLKKRKQN-NH2; lactam 5-9; SMILES CC(=O)N[C@H](C(=O)N[C@@H](CO)C(=O)N[C@@H](CCCCN)C(=O)N[C@@H](CC(C)C)C(=O)N[C@H]1CCC(=O)NCCCC[C@@H](C(=O)N[C@@H](CCCCN)C(=O)N[C@@H](CCCNC(=N)N)C(=O)N[C@@H](CCCCN)C(=O)N[C@@H](CCC(N)=O)C(=O)N[C@@H](CC(N)=O)C(N)=O)NC(=O)[C@H](CC(C)C)NC(=O)[C@H](CCC(N)=O)NC(=O)[C@H](CO)NC1=O)C(C)C) [Compound 151]			0.70	0.70	0.82	0.70	alpha-helical character equal to that of the linear peptide	-1.62E+04 deg cm^2 dmol^−1	-9.25E+03 deg cm^2 dmol^−1	-1.33E+04 deg cm^2 dmol^−1	-6.45E+03 deg cm^2 dmol^−1	59 % inhib.	significantly inhibit cell migration	
Ac-(cyclo-6,10)-VSKLR[EQLVK]RKQN-NH2 (Ac-VSKLREQLVKRKQN-NH2; lactam 6-10; SMILES CC(=O)N[C@H](C(=O)N[C@@H](CO)C(=O)N[C@@H](CCCCN)C(=O)N[C@@H](CC(C)C)C(=O)N[C@@H](CCCNC(=N)N)C(=O)N[C@H]1CCC(=O)NCCCC[C@@H](C(=O)N[C@@H](CCCNC(=N)N)C(=O)N[C@@H](CCCCN)C(=O)N[C@@H](CCC(N)=O)C(=O)N[C@@H](CC(N)=O)C(N)=O)NC(=O)[C@H](C(C)C)NC(=O)[C@H](CC(C)C)NC(=O)[C@H](CCC(N)=O)NC1=O)C(C)C) [Compound 152]				0.61	0.70	0.61		-1.50E+04 deg cm^2 dmol^−1	-7.90E+03 deg cm^2 dmol^−1	-1.19E+04 deg cm^2 dmol^−1	-4.85E+03 deg cm^2 dmol^−1		significantly inhibit cell migration	significantly inhibited inflammation
Ac-(cyclo-7,11)-VSKLRS[ELVKK]KQN-NH2 (Ac-VSKLRSELVKKKQN-NH2; lactam 7-11; SMILES CC(=O)N[C@H](C(=O)N[C@@H](CO)C(=O)N[C@@H](CCCCN)C(=O)N[C@@H](CC(C)C)C(=O)N[C@@H](CCCNC(=N)N)C(=O)N[C@@H](CO)C(=O)N[C@H]1CCC(=O)NCCCC[C@@H](C(=O)N[C@@H](CCCCN)C(=O)N[C@@H](CCC(N)=O)C(=O)N[C@@H](CC(N)=O)C(N)=O)NC(=O)[C@H](CCCCN)NC(=O)[C@H](C(C)C)NC(=O)[C@H](CC(C)C)NC1=O)C(C)C) [Compound 153]			0.54	0.54	0.74	0.54	decreased helicity	-1.02E+04 deg cm^2 dmol^−1	-6.79E+03 deg cm^2 dmol^−1	-8.53E+03 deg cm^2 dmol^−1	-3.68E+03 deg cm^2 dmol^−1	0 % inhib.		
